In publication PMC7924340 (Toxins, 2021):

Columns and labels:
Assay in all cases: radioligand binding
[1] = molecular target: Acetylcholine binding protein from Lymnaea stagnalis (Lymnaea stagnalis) (UniProt P58154)
[2] = molecular target: Acetylcholine binding protein from Aplysia californica (Aplysia californica)
[3] = molecular target: human α7 nAChR (human) (UniProt P36544)
[4] = molecular target: Muscle-type nAChR from the electric organs of Torpedo californica (Torpedo californica (endogenous in electric organ))
[5] = molecular target: T1, human α7 nAChR (human, UniProt P36544 23-502); conditions: one partner purified
T1 construct: also called hα7 nAChR

[6] = molecular target: T2, Acetylcholine binding protein from Lymnaea stagnalis (Lymnaea stagnalis, UniProt P58154 20-229); conditions: both partners purified
T2 construct: also called AChBP L. stagnalis; L. stagnalis AChBP

T1 sequence (P36544 23-502): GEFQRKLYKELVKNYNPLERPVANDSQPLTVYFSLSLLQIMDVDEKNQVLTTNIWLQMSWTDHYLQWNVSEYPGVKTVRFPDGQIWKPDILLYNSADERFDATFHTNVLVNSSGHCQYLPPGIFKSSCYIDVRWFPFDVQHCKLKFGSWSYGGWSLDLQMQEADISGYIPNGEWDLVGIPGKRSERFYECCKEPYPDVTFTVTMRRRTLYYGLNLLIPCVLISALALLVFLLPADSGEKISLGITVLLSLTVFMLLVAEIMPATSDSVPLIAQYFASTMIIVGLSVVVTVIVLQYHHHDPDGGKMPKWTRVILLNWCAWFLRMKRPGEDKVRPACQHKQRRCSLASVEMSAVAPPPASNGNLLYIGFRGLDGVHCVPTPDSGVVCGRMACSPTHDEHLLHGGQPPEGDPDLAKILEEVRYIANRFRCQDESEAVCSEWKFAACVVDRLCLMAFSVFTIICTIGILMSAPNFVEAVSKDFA

Molecule | IC50 [1] | IC50 [2] | IC50 [3] | IC50 [4] | IC50 [5] | IC50 [6]
Tx-NM3-1 (from UniProt P01388 1-71) (natural protein) | 203 nM | 3200 nM | 4.84 nM | 1.61 nM |  | 
α-bungarotoxin from krait Bungarus multicinctus venom (from UniProt P60615 22-95) (natural protein) |  | 155 nM |  |  |  | 
Tx-NM4 (natural protein) IRCFITPDVTSQICADGHVCYTKTWCDNFCASRGKRVDLGCAATCPTVKPGVNIKCCSTDNCNPFPTRNRP |  | 2350 nM |  | 2.17 nM | 26.9 nM | 1160 ± 40 nM
α-bungarotoxin from krait Bungarus multicinctus venom (natural protein) IVCHTTATSPISAVTCPPGENLCYRKMWCDAFCSSRGKVVELGCAATCPSKKPYEEVTCCSTDKCNPHPKQRPG |  |  |  |  |  | 17.2 ± 0.7 nM
Long type neurotoxin I from cobra N. oxiana (natural protein) ITCYKTPIPITSETCAPGQNLCYTKTWCDAWCGSRGKVIELGCAATCPTVESYQDIKCCSTDDCNPHPKQKRP |  | 1200 nM |  |  |  | 73.4 ± 1.3 nM
